Assay [1] addresses T1, human CTLA-4-Fc (Chimerigen) (human, UniProt P16410 36-161; P01857 99-330 = IgG part, limits assumed).
T1 construct: extracellular domain;domain: Fc portion; Bought protein; also called hCTLA-4-Fc; huCTLA-4-Ig
In words: SPR, Fc fusion captured via anti-human IgG Fc. A general note: SPR reads the build-up and loss of mass on a sensor chip optically.

The target of assay [2] is mCTLA-4-Fc (R&D Systems) (mouse, UniProt P09793 36-162). Briefly: SPR, Fc fusion captured via anti-human IgG Fc.
The target of assay [3] is T1, human CTLA-4-Fc (Chimerigen). In words: SPR-Affinity of the monomer towards hCTLA-4-Fc.

Sequence of mCTLA-4-Fc (R&D Systems) (P09793 whole entry, the tested form may be a part): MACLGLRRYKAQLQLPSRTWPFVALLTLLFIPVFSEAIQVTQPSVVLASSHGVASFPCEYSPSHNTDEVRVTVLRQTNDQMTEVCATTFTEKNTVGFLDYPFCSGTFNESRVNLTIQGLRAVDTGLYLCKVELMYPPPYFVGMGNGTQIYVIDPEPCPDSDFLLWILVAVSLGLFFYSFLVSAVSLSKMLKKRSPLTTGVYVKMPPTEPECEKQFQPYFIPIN
T1 sequence (P16410 other isoform, or with tags, fused parts or gaps mutant limits assumed): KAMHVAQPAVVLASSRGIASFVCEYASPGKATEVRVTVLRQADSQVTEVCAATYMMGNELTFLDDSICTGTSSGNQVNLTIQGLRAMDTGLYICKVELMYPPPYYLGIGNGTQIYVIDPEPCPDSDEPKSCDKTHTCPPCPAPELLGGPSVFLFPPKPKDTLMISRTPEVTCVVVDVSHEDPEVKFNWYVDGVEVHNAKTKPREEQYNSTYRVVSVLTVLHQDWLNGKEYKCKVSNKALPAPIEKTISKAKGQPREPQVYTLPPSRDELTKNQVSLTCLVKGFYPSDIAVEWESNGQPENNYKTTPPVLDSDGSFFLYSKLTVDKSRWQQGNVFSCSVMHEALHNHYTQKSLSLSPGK

B1: hNGAL mutein S67.3-C21 (designed binder)
chain: QDSTSDLIPAPPLSKVPLQQNFQDNQFHGKWYVVGLAGNYIWRNDRYPMQMYATIYELKEDKSYNVTSVIFDTKKCEYPIATFVPGSQPGEFTLGNIKSYRMDTSYLVRVVSTNYNQHAMVFFKQVNHNTEHFAITIYGRTKELASELKENFIRFSKSLGLPENHIVFPVPIDQCIDGSAWSHPQF
For the molecule B1, in assay [1], the Kd was 20 nM, the koff was 0.00033 s⁻¹ and the kon stood at 16000 M⁻¹ s⁻¹. Moreover, in assay [2], the Kd was determined as 6800 nM, the dissociation rate constant (koff) was 0.098 s⁻¹ and the kon came to 14500 M⁻¹ s⁻¹.

B2: hNGAL mutein S67.2-F03 (designed binder)
chain: QDSTSDLIPAPPLSKVPLQQNFQDNQFHGKWYVVGLAGNRILRDDQHPMNMYATIYELKEDKSYNVTSVIFPHKKCEYTIATFVPGSQPGEFTLGNIKSYGDKTSYLVRVVSTNYNQHAMVFFKLVEDNAEFFAITIYGRTKELASELKENFIRFSKSLGLPENHIVFPVPIDQCIDGSAWSHPQF
Turning to B2, in assay [1], the affinity, expressed as Kd, was 47.1 nM; the koff turned out to be 0.00033 s⁻¹; the kon is 7030 M⁻¹ s⁻¹. In assay [2], the dissociation constant (Kd) was found to be 198 nM, the koff came to 0.00089 s⁻¹ and the kon was 4500 M⁻¹ s⁻¹.

B3: hNGAL mutein S106.3-O19 (designed binder)
chain: QDSTSDLIPAPPLSKVPLQQNFQDNQFHGKWYVVGLAGNRILRDDQHPMNMYATIYELKEDKSYNVTSVIFPHKKCEHTIATFVPGSQPGEFTLGNIKSYGDKTSYLVRVVSTDYNQHAMVFFELVEDNAGFFAITIYGRTKELASELKENFIRFSKSLGLPENHIVFPVPIDQCIDGSAWSHPQF
Take B3: the Kd was 22 nM in assay [1] and 135 nM in assay [2].

B4: hNGAL mutein S109.6-J11 (designed binder)
chain: QDSTSDLIPAPPLSKVPLQQNFQDNQFHGKWYVVGLAGNRILRDDQHPMNMYATIYELKEDKSYNVTSVIFPHKKCEYTFATFVPGSQPGEFTLGNIKSYGDKTSYLVRVVSTNYNQHATVFFKLAEDNAEFFAVTIYGRTKELASELKENFIRFSKSLGLPENHIVFPVPIDQCIDGSAWSHPQF
Take B4: the Kd in assay [1] came out at 20 nM; in assay [2], 47 nM.

B5: hNGAL mutein S106.1-N15 (designed binder)
chain: QDSTSDLIPAPPLSKVPLQQNFQDNQFHGKWYVLGLAGNRILRDDQHPMNMYATIYELKEDKSYNVTSVIFPHKKCEYTIATFVPGSQPGEFTLGNIKSYGDKTSYLVRVVSTNYNQHAMVFFKLAEDNAEFFAITIYGRTKELASELKENFIRFSKSLGLPENHIVFPVPIDQCIDGSAWSHPQF
Take B5: the Kd in assay [1] was found to be 43 nM; in assay [2], 110 nM.

B6: hNGAL mutein S94.2-F05 (designed binder)
chain: QDSTSDLIPAPPLSKVPLQQNFQDNQFHGKWYVVGLAGNRILRDDQHPMNMYATIYELKEDKSYNVTSVIFPHKKCEYTIATFVPGSQPGEFTLGNIKSYGDKTSYLVRVVSTNYNQYAMVFFKLAEDNAEFFAVTIYGRTKELASELKENFIRFSKSLGLPENHIVFPVPIDQCIDGSAWSHPQF
B6: the Kd is 18 nM in assay [1] and 65 nM in assay [2].

B7: hNGAL mutein S107.4-C16 (designed binder)
chain: QDSTSDLIPAPPLSKVPLQQNFQDNQFHGKWYVVGLAGNRILRDDQHPMNMYATIYELKEDKSYNVTSVIFPHKKCEYTIATFVPGSQPGEFTLGNIKSYGDKTSYLVRVVSTNYNQHAMVFFELVEDNAGFFAITIYGRTKELASELKENFIRFSKSLGLPENHIVFPVPIDQCIDGSAWSHPQF
Consider B7, for which the Kd in assay [1] was determined as 28 nM; in assay [2] it was 275 nM.

B8: hNGAL mutein S106.3-K20 (designed binder)
chain: QDSTSDLIPAPPLSKVPLQQNFQDNQFHGKWYVVGLAGNRILRDDQHPMNMYATIYELKEDKSYNVTSVIFPHKKCEYTIATFVPGSQPGEFTLGNIKSYGDKTSYLVRVVSTNYNQHAVVFFQLVEDNAGFFAITIYGRTKELASELKENFIRFSKSLGLPENHIVFPVPIDQCIDGSAWSHPQF
For B8, the dissociation constant Kd in assay [1] was determined as 29 nM; in assay [2] it was 300 nM.

B9: hNGAL mutein S109.5-L04 (designed binder)
chain: QDSTSDLIPAPPLSKVPLQQNFQDNQFHGKWYVVGLAGNRILRDDRHPMNMYATIYELKEDKSYNVTSVIFPHKKCEYTIATFVPGSQPGEFTLGNIKSYGDKTSYLVRVVSTNYNQHATVFFKLAEDNAEFFAITIYGRTKELASELKENFIRFSKSLGLPENHIVFPVPIDQCIDGSAWSHPQF
As for B9, the Kd in assay [1] came to 29 nM; in assay [2], 42 nM.

B10: hNGAL mutein S109.4-A15 (designed binder)
chain: QDSTSDLIPAPPLSKVPLQQNFQDNQFHGKWYVVGLAGNRILRDDQHPMDMYATIYELKEDKSYNVTSVIFPHKKCEYTIATFVPGSQPGEFTLGNIKSYGDKTSYLVRVVSTNYNQHATVFFKLAEDNAEFFAITIYGRTKELASELKENFIRFSKSLGLPENHIVFPVPIDQCIDGSAWSHPQF
For B10, the Kd in assay [1] worked out at 26 nM.

B11: hNGAL mutein S109.5-L23 (designed binder)
chain: QDSTSDLIPAPPLSKVPLQQNFQDNQFHGKWYVVGLAGNRILRDDQHPMNMYATIYELKEDKSYDVTSVIFPHKKCEYTTATFVPGSQPGEFTLGNIKSYGGKTSYLVRVVSTNYNQHATVFFKLAGDNAEFFAITIYGRTKELASELKENFIRFSKSLGLPENHIVFPVPIDQCIDGSAWSHPQF
B11 displayed a Kd in assay [2] of 19 nM.

B12: S140.4-O10_A145C (designed binder)
chain: QDSTSDLIPAPPLSKVPLQQNFQDNQFHGKWYVVGLAGNRILRDDQHPMNMYATIYELKEDKSYNVTSVISSHKKCEYTIATFVPGSQPGEFTLGNIKSYGDKTSYLVRVVSTDYNQYAVVFFKLAEDNAEFFAITIYGRTKELCSELKENFIRFSKSLGLPENHIVFPVPIDQCIDG
notes: Produced from phNGAL15 without the T7 tag
In the case of B12, binding in assay [3] was characterised by a dissociation constant (Kd) of 6 nM.

B13: S140.4-O10_N21C (designed binder)
chain: QDSTSDLIPAPPLSKVPLQQCFQDNQFHGKWYVVGLAGNRILRDDQHPMNMYATIYELKEDKSYNVTSVISSHKKCEYTIATFVPGSQPGEFTLGNIKSYGDKTSYLVRVVSTDYNQYAVVFFKLAEDNAEFFAITIYGRTKELASELKENFIRFSKSLGLPENHIVFPVPIDQCIDG
notes: as for B12
Take B13: the Kd in assay [3] is 32 nM.

B14: S140.4-O10_E143C (designed binder)
chain: QDSTSDLIPAPPLSKVPLQQNFQDNQFHGKWYVVGLAGNRILRDDQHPMNMYATIYELKEDKSYNVTSVISSHKKCEYTIATFVPGSQPGEFTLGNIKSYGDKTSYLVRVVSTDYNQYAVVFFKLAEDNAEFFAITIYGRTKCLASELKENFIRFSKSLGLPENHIVFPVPIDQCIDG
notes: as for B12
On to B14, for which binding in assay [3] was put at a Kd of 15 nM.

B15: S140.4-O10_E60C (designed binder)
chain: QDSTSDLIPAPPLSKVPLQQNFQDNQFHGKWYVVGLAGNRILRDDQHPMNMYATIYELKCDKSYNVTSVISSHKKCEYTIATFVPGSQPGEFTLGNIKSYGDKTSYLVRVVSTDYNQYAVVFFKLAEDNAEFFAITIYGRTKELASELKENFIRFSKSLGLPENHIVFPVPIDQCIDG
notes: as for B12
B15 came in with a Kd in assay [3] of 24 nM.

B16: S140.4-O10_N116 (designed binder)
chain: QDSTSDLIPAPPLSKVPLQQNFQDNQFHGKWYVVGLAGNRILRDDQHPMNMYATIYELKEDKSYNVTSVISSHKKCEYTIATFVPGSQPGEFTLGNIKSYGDKTSYLVRVVSTDYCQYAVVFFKLAEDNAEFFAITIYGRTKELASELKENFIRFSKSLGLPENHIVFPVPIDQCIDG
notes: Produced from phNGAL15 without the T7 tag; also called O10_N116C
In turn, B16 came in with a Kd in assay [3] of 10 nM.

A word on the Kd: it is a measure of binding affinity in units of concentration. A lower Kd goes with higher affinity. For orientation: koff means the rate constant with which the complex falls apart. A higher koff goes with fast dissociation. For orientation: kon means a measure of how fast the partners come together. Lower therefore signals slow association.
